According to patent publication US20160289331A1 (NATIONAL UNIVERSITY CORP HOKKAIDO UNIVERSITY, published 2016):

T1: mouse Sdc1 (mSdc1) expressed on cells (mouse, UniProt P18828 18-311, heparan sulfate is bound at position 45 and position 47)
T1 construct: On DO11.10-T or A20 cells transformed with pMXsIG/mSdc1, and endogenous on A20 cells (shRNA experiment); also called mouse syndecan-1; CD138
T1 sequence: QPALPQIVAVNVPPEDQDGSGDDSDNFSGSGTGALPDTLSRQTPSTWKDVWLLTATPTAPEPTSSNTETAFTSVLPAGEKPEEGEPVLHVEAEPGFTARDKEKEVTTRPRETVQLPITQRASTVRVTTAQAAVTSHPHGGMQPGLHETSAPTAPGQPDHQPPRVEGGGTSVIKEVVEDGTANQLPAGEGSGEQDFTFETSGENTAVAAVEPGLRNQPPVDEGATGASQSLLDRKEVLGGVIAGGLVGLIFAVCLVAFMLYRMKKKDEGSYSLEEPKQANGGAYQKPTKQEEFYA


Columns and labels:
[1] = target: mDR6 expressed on mouse T cells (DO11.10-T cells, splenocytes) (mouse) (UniProt Q9EPU5); experiment: cell-based or functional assay
[2] = target: T1, mouse Sdc1 (mSdc1) expressed on cells; experiment: binding of labeled Fc fusions to DO11.10-T cells expressing mSdc1
Source text: An expression vector (pMXsIG/mSdc1) into which a gene encoding mSdc1 (SEQ ID NO: 7) was incorporated in an expressible manner, and a control vector (pMXsIG) were introduced into DO11.10-T cells to prepare transformed cells. Binding abilities of these two kinds of transformed cells to labeled mDR6-hFcm and to labeled mDR6-hFcm deltaCRD1 was examined, and it was confirmed that binding ability of mDR6-hFcm deltaCRD1 increased to about 2.5 times of that of mDR6-hFcm (FIG. 22).

IL2 production level of DO11.10-T cells stimulated with anti-CD3 antibody, mSdc1-His at final concentration 100 nM [1]	binding ability relative to mDR6-hFcm [2]	Molecule
50%		mSdc1-His (ligand)
	~2.5 times	mDR6-hFcm deltaCRD1 (Fc fusion, labeled, Derived from pcDNA/mDR6-hFcm; the Fc part is that of mDR6-hFcm; also called CRD1-deficient solubilized DR6 mutant; cysteine rich domain-deficient mDR6 mutant; not shown: human IgG Fc region) QPEQKTLSLPGTYRHVDRTTGQVLCHDCSQPCPWPMIERLPCAALTDRECICPPGMYQSNGTCAPHTVCPVGWGVRKKGTENEDVRCKQCARGTFSDVPSSVMKCKAHTDCLGQNLEVVKPGTKETDNVCGMRLFFSSTNPPSSGTVTFSHPEHMESHDVPSSTYEPQGMNSTDSNSTASVRTKVPSGIEEGTVPDNTSSTSGKEGTNRTLPNPPQVTHQQAPHHRHILKLLPSSMEATGEKSSTAIKAPKRGHPRQNAHKHFDINEHL
